The values below come from PMC5692578 (Proceedings of the National Academy of Sciences of the …, 2017).

B2: Mcm7 (natural protein)
chain: MSAALPSIQLPVDYNNLFNEITDFLVTFKQDTLSSDATRNENEDENLDAENIEQHLLEKGPKYMAMLQKVANRELNSVIIDLDDILQYQNEKFLQGTQADDLVSAIQQNANHFTELFCRAIDNNMPLPTKEIDYKDDVLDVILNQRRLRNERMLSDRTNEIRSENLMDTTMDPPSSMNDALREVVEDETELFPPNLTRRYFLYFKPLSQNCARRYRKKAISSKPLSVRQIKGDFLGQLITVRGIITRVSDVKPAVEVIAYTCDQCGYEVFQEVNSRTFTPLSECTSEECSQNQTKGQLFMSTRASKFSAFQECKIQELSQQVPVGHIPRSLNIHVNGTLVRSLSPGDIVDVTGIFLPAPYTGFKALKAGLLTETYLEAQFVRQHKKKFASFSLTSDVEERVMELITSGDVYNRLAKSIAPEIYGNLDVKKALLLLLVGGVDKRVGDGMKIRGDINVCLMGDPGVAKSQLLKAICKISPRGVYTTGKGSSGVGLTAAVMKDPVTDEMILEGGALVLADNGICCIDEFDKMDESDRTAIHEVMEQQTISISKAGINTTLNARTSILAAANPLYGRYNPRLSPLDNINLPAALLSRFDILFLMLDIPSRDDDEKLAEHVTYVHMHNKQPDLDFTPVEPSKMREYIAYAKTKRPVMSEAVNDYVVQAYIRLRQDSKREMDSKFSFGQATPRTLLGIIRLSQALAKLRLADMVDIDDVEEALRLVRVSKESLYQETNKSKEDESPTTKIFTIIKKMLQETGKNTLSYENIVKTVRLRGFTMLQLSNCIQEYSYLNVWHLINEGNTLKFVDDGTMDTDQEDSLVSTPKLAPQTTASANVSAQDSDIDLQDA

Common to all, as to test: cryo-EM structure
The target in test [1] is B2.
Test [2] deals with T1, Mcm4 (S. cerevisiae, UniProt P30665 1-933).
T1 sequence: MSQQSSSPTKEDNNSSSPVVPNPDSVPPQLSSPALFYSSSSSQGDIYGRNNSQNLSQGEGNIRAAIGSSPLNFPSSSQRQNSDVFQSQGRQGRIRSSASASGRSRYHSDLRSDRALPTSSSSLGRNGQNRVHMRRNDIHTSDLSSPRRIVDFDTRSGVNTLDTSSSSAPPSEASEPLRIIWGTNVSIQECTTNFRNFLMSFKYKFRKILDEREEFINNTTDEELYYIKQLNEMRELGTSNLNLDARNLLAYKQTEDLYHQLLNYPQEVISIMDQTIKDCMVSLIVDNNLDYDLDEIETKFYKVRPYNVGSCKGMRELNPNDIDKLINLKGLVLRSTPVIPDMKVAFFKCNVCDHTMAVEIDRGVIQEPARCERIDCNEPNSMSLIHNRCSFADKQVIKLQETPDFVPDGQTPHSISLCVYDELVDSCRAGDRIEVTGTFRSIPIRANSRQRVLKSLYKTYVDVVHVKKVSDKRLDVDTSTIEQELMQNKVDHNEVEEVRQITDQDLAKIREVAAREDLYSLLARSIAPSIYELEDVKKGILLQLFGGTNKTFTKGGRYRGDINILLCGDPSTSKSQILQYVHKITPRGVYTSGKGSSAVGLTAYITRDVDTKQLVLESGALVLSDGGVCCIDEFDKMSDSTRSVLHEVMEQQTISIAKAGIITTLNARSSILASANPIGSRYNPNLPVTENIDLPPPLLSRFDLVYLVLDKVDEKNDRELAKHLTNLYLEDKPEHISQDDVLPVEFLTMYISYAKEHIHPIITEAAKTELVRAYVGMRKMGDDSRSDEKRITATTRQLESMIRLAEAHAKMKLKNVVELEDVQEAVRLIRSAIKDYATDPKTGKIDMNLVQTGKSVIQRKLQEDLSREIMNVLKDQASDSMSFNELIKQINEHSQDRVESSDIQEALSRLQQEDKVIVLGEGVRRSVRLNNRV

The target of test [3] is Mcm3 (S. cerevisiae, UniProt P24279 1-971).
Chain of Mcm3 (P24279 whole entry): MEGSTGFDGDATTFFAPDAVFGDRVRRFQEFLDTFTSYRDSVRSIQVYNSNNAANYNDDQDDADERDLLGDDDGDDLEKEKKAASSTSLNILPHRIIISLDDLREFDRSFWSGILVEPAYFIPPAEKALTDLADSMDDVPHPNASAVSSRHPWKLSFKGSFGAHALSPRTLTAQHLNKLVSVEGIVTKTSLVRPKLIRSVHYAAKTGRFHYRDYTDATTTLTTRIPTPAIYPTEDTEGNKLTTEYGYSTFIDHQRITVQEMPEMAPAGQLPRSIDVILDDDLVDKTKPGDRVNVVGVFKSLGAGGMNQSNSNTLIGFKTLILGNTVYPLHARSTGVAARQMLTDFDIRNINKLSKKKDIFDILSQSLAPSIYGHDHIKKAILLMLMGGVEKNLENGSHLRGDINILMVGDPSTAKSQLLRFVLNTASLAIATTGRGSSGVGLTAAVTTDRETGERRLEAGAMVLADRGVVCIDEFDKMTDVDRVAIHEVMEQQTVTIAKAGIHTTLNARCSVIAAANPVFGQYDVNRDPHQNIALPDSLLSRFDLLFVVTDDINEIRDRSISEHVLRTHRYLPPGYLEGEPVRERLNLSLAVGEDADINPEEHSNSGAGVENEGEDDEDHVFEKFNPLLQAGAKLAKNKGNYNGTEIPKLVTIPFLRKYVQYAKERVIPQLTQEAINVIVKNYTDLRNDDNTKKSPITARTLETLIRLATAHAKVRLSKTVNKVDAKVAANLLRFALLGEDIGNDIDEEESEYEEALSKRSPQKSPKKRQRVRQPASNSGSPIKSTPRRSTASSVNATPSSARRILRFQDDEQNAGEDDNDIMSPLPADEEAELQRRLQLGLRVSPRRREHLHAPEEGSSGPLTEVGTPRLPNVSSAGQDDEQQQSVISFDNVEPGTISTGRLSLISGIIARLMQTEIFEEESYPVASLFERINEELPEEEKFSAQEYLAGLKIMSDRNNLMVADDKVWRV

B1: Mcm5 (natural protein)
chain: MSFDRPEIYSAPVLQGESPNDDDNTEIIKSFKNFILEFRLDSQFIYRDQLRNNILVKNYSLTVNMEHLIGYNEDIYKKLSDEPSDIIPLFETAITQVAKRISILSRAQSANNNDKDPENTSMDTDSLLLNSLPTFQLILNSNANQIPLRDLDSEHVSKIVRLSGIIISTSVLSSRATYLSIMCRNCRHTTSITINNFNSITGNTVSLPRSCLSTIESESSMANESNIGDESTKKNCGPDPYIIIHESSKFIDQQFLKLQEIPELVPVGEMPRNLTMTCDRYLTNKVIPGTRVTIVGIYSIYNSKNGAGSGRSGGGNGGSGVAIRTPYIKILGIQSDVETSSIWNSVTMFTEEEEEEFLQLSRNPKLYEILTNSIAPSIFGNEDIKKAIVCLLMGGSKKILPDGMRLRGDINVLLLGDPGTAKSQLLKFVEKVSPIAVYTSGKGSSAAGLTASVQRDPMTREFYLEGGAMVLADGGVVCIDEFDKMRDEDRVAIHEAMEQQTISIAKAGITTVLNSRTSVLAAANPIYGRYDDLKSPGDNIDFQTTILSRFDMIFIVKDDHNEERDISIANHVINIHTGNANAMQNQQEENGSEISIEKMKRYITYCRLKCAPRLSPQAAEKLSSNFVTIRKQLLINELESTERSSIPITIRQLEAIIRITESLAKLELSPIAQERHVDEAIRLFQASTMDAASQDPIGGLNQASGTSLSEIRRFEQELKRRLPIGWSTSYQTLRREFVDTHRFSQLALDKALYALEKHETIQLRHQGQNIYRSGV
As for B1, in test [1], the binding result is given as “binds”.
Turning to B2, the binding result in test [2] and in test [3] was “binds” throughout.
